From the supplement of paper PMC11246515
± gives the standard deviation of the averaged measurements.

Test: total protein half-life in vivo (active degradation + dilution); higher = more stable protein
[1] = E. coli NCM3722 delta-clpP delta-lon delta-hslV, growth: N-lim chemostat, doubling time 6 h
[2] = E. coli NCM3722 delta-clpP, growth: N-lim chemostat, doubling time 6 h
[3] = E. coli NCM3722 delta-hslV, growth: N-lim chemostat, doubling time 6 h
[4] = E. coli NCM3722 delta-lon, growth: N-lim chemostat, doubling time 6 h
[5] = E. coli NCM3722 delta-smpB, growth: N-lim chemostat, doubling time 6 h
[6] = wild type E. coli NCM3722, growth: C-lim chemostat, doubling time 3 h
[7] = wild type E. coli NCM3722, growth: C-lim chemostat, doubling time 6 h
[8] = wild type E. coli NCM3722, growth: C-lim chemostat, doubling time 12 h
[9] = wild type E. coli NCM3722, growth: N-lim chemostat, doubling time 6 h
[10] = wild type E. coli NCM3722, growth: N-lim chemostat, doubling time 12 h
[11] = wild type E. coli NCM3722, growth: P-lim chemostat, doubling time 6 h
[12] = wild type E. coli NCM3722, growth: P-lim chemostat, doubling time 12 h

Sequence | total protein half-life in vivo [1] [h] | total protein half-life in vivo [2] [h] | total protein half-life in vivo [3] [h] | total protein half-life in vivo [4] [h] | total protein half-life in vivo [5] [h] | total protein half-life in vivo [6] [h] | total protein half-life in vivo [7] [h] | total protein half-life in vivo [8] [h] | total protein half-life in vivo [9] [h] | total protein half-life in vivo [10] [h] | total protein half-life in vivo [11] [h] | total protein half-life in vivo [12] [h]
MKNIIRTPETHPLTWRLRDDKQPVWLDEYRSKNGYEGARKALTGLSPDEIVNQVKDAGLKGRGGAGFSTGLKWSLMPKDESMNIRYLLCNADEMEPGTYKDRLLMEQLPHLLVEGMLISAFALKAYRGYIFLRGEYIEAAVNLRRAIAEATEAGLLGKNIMGTGFDFELFVHTGAGRYICGEETALINSLEGRRANPRSKPPFPATSGAWGKPTCVNNVETLCNVPAILANGVEWYQNISKSKDAGTKLMGFSGRVKNPGLWELPFGTTAREILEDYAGGMRDGLKFKAWQPGGAGTDFLTEAHLDLPMEFESIGKAGSRLGTALAMAVDHEINMVSLVRNLEEFFARESCGWCTPCRDGLPWSVKILRALERGEGQPGDIETLEQLCRFLGPGKTFCAHAPGAVEPLQSAIKYFREEFEAGIKQPFSNTHLINGIQPNLLKERW | 5.67 ± 0.18 | 5.27 ± 0.43 | 6.1 ± 0.97 | 5.74 ± 0.13 | 5.48 ± 0.17 | 2.73 ± 0.23 | 5.63 ± 0.092 | 9.99 ± 0.41 | 5.44 ± 0.24 | 9.884 ± 0.082 | 5.251 ± 0.0079 | 10.4 ± 0.9
MIEFSHVSKLFGAQKAVNDLNLNFQEGSFSVLIGTSGSGKSTTLKMINRLVEHDSGEIRFAGEEIRSLPVLELRRRMGYAIQSIGLFPHWSVAQNIATVPQLQKWSRARIDDRIDELMALLGLESNLRERYPHQLSGGQQQRVGVARALAADPQVLLMDEPFGALDPVTRGALQQEMTRIHRLLGRTIVLVTHDIDEALRLAEHLVLMDHGEVVQQGNPLTMLTRPANDFVRQFFGRSELGVRLLSLRSVADYVRREERADGEALAEEMTLRDALSLFVARGCEVLPVVNMQGQPCGTLHFQDLLVEA | 5.87 ± 0.78 | 5.31 ± 0.036 |  | 4.82 | 4.51 ± 0.06 | 2.77 ± 0.11 | 4.96 ± 0.22 | 8.02 ± 0.57 | 5.05 ± 0.085 | 7.777 ± 0.046 | 4.85 ± 0.33 | 8.835 ± 0.04
MSLWKKISLGVVIVILLLLGSVAFLVGTTSGLHLVFKAADRWVPGLDIGKVTGGWRDLTLSDVRYEQPGVAVKAGNLHLAVGLECLWNSSVCINDLALKDIQVNIDSKKMPPSEQVEEEEDSGPLDLSTPYPITLTRVALDNVNIKIDDTTVSVMDFTSGLNWQEKTLTLKPTSLKGLLIALPKVAEVAQEEVVEPKIENPQPDEKPLGETLKDLFSRPVLPEMTDVHLPLNLNIEEFKGEQLRVTGDTDITVSTMLLKVSSIDGNTKLDALDIDSSQGIVNASGTAQLSDNWPVDITLNSTLNVEPLKGEKVKLKMGGALREQLEIGVNLSGPVDMDLRAQTRLAEAGLPLNVEVNSKQLYWPFTGEKQYQADDLKLKLTGKMTDYTLSMRTAVKGQEIPPATITLDAKGNEQQVNLDKLTVAALEGKTELKALLDWQQAISWRGELTLNGINTAKEFPDWPSKLNGLIKTRGSLYGGTWQMDVPELKLTGNVKQNKVNVDGTLKGNSYMQWMIPGLHLELGPNSAEVKGELGVKDLNLDATINAPGLDNALPGLGGTAKGLVKVRGTVEAPQLLADITARGLRWQELSVAQVRVEGDIKSTDQIAGKLDVRVEQISQPDVNINLVTLNAKGSEKQHELQLRIQGEPVSGQLNLAGSFDRKEERWKGTLSNTRFQTPVGPWSLTRDIALDYRNKEQKISIGPHCWLNPNAELCVPQTIDAGAEGRAVVNLNRFDLAMLKPFMPETTQASGIFTGKADVAWDTTKEGLPQGSITLSGRNVQVTQTVNDAALPVAFQTLNLTAELRNNRAELGWTIRLTNNGQFDGQVQVTDPQGRRNLGGNVNIRNFNLAMINPIFTRGEKAAGMVSANLRLGGDVQSPQLFGQLQVTGVDIDGNFMPFDMQPSQLAVNFNGMRSTLAGTVRTQQGEIYLNGDADWSQIENWRARVTAKGSKVRITVPPMVRMDVSPDVVFEATPNLFTLDGRVDVPWARIVVHDLPESAVGVSSDVVMLNDNLQPEEPKTASIPINSNLIVHVGNNVRIDAFGLKARLTGDLNVVQDKQGLGLNGQINIPEGRFHAYGQDLIVRKGELLFSGPPDQPYLNIEAIRNPDATEDDVIAGVRVTGLADEPKAEIFSDPAMSQQAALSYLLRGQGLESDQSDSAAMTSMLIGLGVAQSGQIVGKIGETFGVSNLALDTQGVGDSSQVVVSGYVLPGLQVKYGVGIFDSIATLTLRYRLMPKLYLEAVSGVDQALDLLYQFEF | 5.88 ± 0.49 | 6.03 ± 0.44 | 6.95 ± 0.39 | 6.374 ± 0.041 | 5.69 ± 0.29 | 3.04 ± 0.044 | 5.97 ± 0.5 | 11.7 ± 1.2 | 6.2514 ± 0.0027 | 12.1 ± 0.24 | 5.992 ± 0.026 | 12.22 ± 0.066
METYAVFGNPIAHSKSPFIHQQFAQQLNIEHPYGRVLAPINDFINTLNAFFSAGGKGANVTVPFKEEAFARADELTERAALAGAVNTLMRLEDGRLLGDNTDGVGLLSDLERLSFIRPGLRILLIGAGGASRGVLLPLLSLDCAVTITNRTVSRAEELAKLFAHTGSIQALSMDELEGHEFDLIINATSSGISGDIPAIPSSLIHPGIYCYDMFYQKGKTPFLAWCEQRGSKRNADGLGMLVAQAAHAFLLWHGVLPDVEPVIKQLQEELSA | 4 ± 0.39 | 4.39 ± 0.89 | 4.03 ± 0.27 | 6.18 ± 2.5 | 3.9 ± 0.14 | 2.4 ± 0.59 | 5.428 ± 0.014 | 8.94 ± 2.3 | 4.16 ± 0.36 | 6.95 ± 0.015 | 6.01 ± 0.18 | 11.7 ± 1.5
MNLEKINELTAQDMAGVNAAILEQLNSDVQLINQLGYYIVSGGGKRIRPMIAVLAARAVGYEGNAHVTIAALIEFIHTATLLHDDVVDESDMRRGKATANAAFGNAASVLVGDFIYTRAFQMMTSLGSLKVLEVMSEAVNVIAEGEVLQLMNVNDPDITEENYMRVIYSKTARLFEAAAQCSGILAGCTPEEEKGLQDYGRYLGTAFQLIDDLLDYNADGEQLGKNVGDDLNEGKPTLPLLHAMHHGTPEQAQMIRTAIEQGNGRHLLEPVLEAMNACGSLEWTRQRAEEEADKAIAALQVLPDTPWREALIGLAHIAVQRDR [P0AD57] | 4.19 ± 0.56 | 4.1 ± 0.06 | 3.69 ± 0.19 | 5.2 ± 0.3 | 4.09 ± 0.18 | 3.02 ± 0.1 | 5.42 ± 0.15 | 9.86 ± 0.44 | 3.93 ± 0.17 | 6.372 ± 0.062 | 5.64 ± 0.61 | 11.4 ± 0.24
